Patent publication US20190225675A1 (TUFTS UNIVERSITY, published 2019)

Columns and labels:
[1] = biological target: Clostridium difficile toxin B (TcdB) (Clostridium difficile, UniProt P18177 2-2366)
[2] = biological target: T1, Clostridium difficile toxin A (TcdA) (Clostridium difficile, UniProt P16154 1-2710); experiment: ELISA on plates coated with TcdA, HRP-conjugated detection antibody, A450
T1 construct: mature
T1 sequence (P16154 whole entry): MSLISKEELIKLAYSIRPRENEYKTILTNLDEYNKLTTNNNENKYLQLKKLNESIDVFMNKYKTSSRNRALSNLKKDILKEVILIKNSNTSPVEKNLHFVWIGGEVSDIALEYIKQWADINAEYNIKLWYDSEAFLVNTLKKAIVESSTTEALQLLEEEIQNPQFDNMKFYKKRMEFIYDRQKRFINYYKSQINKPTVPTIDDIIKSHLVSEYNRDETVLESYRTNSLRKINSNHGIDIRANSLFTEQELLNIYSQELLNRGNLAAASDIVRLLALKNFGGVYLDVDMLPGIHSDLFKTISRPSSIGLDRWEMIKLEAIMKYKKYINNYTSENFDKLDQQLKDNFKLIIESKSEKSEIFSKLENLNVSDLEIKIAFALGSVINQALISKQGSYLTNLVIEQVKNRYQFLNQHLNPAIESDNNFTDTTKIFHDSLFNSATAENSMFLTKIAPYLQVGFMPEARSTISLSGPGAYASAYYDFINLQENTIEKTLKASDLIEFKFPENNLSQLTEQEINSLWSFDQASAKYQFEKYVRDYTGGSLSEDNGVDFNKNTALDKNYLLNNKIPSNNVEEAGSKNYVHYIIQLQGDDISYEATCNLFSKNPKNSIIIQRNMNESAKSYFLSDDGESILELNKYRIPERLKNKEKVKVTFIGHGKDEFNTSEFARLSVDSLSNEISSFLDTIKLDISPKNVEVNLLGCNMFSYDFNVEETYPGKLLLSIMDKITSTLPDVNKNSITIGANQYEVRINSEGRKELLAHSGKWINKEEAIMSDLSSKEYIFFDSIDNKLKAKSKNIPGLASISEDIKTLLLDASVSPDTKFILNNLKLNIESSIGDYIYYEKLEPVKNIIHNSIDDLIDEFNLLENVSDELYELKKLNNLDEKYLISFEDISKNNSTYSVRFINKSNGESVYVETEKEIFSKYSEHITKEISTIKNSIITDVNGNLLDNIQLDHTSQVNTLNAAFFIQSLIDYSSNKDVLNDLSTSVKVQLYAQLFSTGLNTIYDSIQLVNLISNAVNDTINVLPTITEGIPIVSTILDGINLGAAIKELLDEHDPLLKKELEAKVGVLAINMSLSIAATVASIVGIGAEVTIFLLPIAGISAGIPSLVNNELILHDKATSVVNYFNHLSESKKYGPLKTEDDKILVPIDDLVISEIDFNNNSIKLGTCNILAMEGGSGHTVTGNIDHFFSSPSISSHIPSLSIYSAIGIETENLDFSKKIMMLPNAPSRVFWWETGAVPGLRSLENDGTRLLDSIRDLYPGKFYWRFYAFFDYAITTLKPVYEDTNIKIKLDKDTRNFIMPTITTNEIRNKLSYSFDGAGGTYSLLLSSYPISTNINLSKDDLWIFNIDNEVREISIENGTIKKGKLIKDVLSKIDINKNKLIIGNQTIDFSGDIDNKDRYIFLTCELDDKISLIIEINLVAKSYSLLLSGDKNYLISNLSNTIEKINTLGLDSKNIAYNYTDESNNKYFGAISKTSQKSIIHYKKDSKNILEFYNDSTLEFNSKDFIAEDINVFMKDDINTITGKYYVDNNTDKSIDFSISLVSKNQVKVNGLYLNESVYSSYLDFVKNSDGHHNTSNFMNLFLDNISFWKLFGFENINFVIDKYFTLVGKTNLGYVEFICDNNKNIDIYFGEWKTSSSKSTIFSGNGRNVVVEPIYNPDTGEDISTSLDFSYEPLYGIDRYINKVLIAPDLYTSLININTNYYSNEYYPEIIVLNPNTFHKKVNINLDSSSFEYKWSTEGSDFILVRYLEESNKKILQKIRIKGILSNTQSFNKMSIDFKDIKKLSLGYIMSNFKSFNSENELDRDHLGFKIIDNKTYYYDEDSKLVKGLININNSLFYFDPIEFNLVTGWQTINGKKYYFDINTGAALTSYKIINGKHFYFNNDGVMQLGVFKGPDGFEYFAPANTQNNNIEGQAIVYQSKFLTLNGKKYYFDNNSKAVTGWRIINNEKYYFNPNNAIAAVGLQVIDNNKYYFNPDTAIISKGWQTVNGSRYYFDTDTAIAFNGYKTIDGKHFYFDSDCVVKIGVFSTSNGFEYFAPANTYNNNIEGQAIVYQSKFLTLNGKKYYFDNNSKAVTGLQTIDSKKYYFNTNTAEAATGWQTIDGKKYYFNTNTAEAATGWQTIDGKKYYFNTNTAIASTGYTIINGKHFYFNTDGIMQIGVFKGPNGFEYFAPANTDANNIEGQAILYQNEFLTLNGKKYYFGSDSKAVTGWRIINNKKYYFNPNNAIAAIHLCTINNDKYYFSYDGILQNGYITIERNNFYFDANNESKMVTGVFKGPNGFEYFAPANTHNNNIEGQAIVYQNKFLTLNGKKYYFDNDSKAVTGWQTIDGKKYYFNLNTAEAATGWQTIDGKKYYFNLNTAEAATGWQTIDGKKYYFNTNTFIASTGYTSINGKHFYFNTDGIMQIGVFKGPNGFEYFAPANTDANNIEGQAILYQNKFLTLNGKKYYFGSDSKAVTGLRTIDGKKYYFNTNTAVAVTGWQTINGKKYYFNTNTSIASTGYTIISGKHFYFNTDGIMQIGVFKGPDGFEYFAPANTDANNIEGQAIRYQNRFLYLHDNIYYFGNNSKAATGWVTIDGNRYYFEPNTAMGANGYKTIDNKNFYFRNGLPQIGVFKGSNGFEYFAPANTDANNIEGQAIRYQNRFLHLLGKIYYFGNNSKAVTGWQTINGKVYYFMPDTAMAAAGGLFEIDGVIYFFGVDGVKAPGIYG

Sequence of Clostridium difficile toxin B (TcdB) (P18177 2-2366): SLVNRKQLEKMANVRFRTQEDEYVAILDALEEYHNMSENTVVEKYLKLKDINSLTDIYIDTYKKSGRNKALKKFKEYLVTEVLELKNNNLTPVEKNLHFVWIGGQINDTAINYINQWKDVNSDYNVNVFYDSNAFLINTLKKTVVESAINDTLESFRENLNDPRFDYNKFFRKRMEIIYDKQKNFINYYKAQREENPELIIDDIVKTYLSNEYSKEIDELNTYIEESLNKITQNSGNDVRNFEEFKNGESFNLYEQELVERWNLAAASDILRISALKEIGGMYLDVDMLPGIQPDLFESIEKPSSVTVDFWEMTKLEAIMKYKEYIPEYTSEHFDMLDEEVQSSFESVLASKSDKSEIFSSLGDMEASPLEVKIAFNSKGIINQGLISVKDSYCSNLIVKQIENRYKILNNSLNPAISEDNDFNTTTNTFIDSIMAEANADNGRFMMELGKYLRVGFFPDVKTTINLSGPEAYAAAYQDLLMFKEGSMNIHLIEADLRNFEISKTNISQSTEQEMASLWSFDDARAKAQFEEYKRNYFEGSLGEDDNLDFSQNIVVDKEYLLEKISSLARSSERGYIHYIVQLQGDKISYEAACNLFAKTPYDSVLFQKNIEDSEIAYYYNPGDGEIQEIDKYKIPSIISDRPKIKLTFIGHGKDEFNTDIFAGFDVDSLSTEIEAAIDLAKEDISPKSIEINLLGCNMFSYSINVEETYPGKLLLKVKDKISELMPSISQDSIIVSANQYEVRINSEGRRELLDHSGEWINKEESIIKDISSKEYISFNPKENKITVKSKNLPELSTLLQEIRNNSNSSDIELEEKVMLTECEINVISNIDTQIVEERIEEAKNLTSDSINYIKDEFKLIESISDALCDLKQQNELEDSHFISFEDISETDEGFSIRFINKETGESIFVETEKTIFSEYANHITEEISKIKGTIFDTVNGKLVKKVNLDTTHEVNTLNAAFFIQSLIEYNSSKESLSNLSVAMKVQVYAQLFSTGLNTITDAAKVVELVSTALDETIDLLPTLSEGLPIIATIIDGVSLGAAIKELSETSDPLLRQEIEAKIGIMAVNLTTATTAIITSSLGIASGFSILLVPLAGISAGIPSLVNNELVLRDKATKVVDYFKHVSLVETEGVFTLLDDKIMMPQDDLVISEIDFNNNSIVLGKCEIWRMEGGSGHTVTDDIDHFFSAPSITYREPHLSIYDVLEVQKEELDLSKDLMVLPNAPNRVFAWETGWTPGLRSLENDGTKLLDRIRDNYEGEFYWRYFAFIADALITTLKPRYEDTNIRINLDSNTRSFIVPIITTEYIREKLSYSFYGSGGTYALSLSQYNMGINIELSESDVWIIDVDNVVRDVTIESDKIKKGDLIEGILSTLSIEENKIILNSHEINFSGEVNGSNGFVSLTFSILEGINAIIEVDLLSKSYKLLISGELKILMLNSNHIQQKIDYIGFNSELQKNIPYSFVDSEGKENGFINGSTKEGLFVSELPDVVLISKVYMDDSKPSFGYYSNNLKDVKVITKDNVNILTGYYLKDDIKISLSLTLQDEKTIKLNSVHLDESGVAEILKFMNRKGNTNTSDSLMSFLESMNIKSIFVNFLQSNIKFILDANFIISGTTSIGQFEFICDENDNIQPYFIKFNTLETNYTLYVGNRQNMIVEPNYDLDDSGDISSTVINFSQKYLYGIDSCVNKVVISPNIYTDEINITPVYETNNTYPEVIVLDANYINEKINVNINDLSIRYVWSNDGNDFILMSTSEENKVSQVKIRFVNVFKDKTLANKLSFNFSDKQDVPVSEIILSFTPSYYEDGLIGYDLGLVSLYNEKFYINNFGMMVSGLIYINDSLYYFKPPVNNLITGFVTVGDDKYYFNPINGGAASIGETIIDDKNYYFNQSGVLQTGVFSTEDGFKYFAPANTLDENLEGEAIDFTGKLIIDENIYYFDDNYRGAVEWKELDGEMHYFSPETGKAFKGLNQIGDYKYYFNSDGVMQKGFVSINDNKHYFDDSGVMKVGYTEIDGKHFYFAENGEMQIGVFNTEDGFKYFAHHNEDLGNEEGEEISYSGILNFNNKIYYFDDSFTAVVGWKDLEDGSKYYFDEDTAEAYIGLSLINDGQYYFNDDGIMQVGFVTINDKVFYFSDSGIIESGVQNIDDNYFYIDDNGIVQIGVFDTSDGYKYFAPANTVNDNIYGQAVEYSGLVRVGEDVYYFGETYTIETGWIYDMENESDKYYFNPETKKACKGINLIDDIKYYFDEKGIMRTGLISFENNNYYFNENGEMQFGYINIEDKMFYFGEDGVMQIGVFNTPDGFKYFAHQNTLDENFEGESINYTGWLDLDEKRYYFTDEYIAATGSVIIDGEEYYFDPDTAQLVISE

B1: VNA-TcdB (toxin B-binding heterodimer, 5D+E3) (other)
chain: QGVQSQLQLVESGGGLVQPGGSLRLSCEASGFTLDYYGIGWFRQPPGKEREAVSYISASARTILYADSVKGRFTISRDNAKNAVYLQMNSLKREDTAVYYCARRRFSASSVNRWLADDYDVWGRGTQVAVSSEPKTPKPQGGGGSGGGGSGGGGSQGVQSQVQLVESGGGLVQTGGSLRLSCASSGSIAGFETVTWSRQAPGKSLQWVASMTKTNNEIYSDSVKGRFIISRDNAKNTVYLQMNSLKPEDTGVYFCKGPELRGQGIQVTVSSEPKTPKPQ
With B1 the “EC50 (read off the curve)” value [1] was about 0.3 nM and the binding result [2] was “no binding (tested: 125 nM)”.
